The values below are quoted from earlier work in article PMC2953804.

This series has as its target Mlh1 (Saccharomyces cerevisiae) (UniProt P38920).

Take Mlh1 (from UniProt P38920): the Kd is 3.14 µM.
